Measurements from US20230220115A1.

Experiments:
[1] = target: CD20 Lipoparticles (UniProt P11836)
[2] = target: recombinant human Fc gamma receptor CD16a 158V (FcRγIIIa) (human) (UniProt P08637)
[3] = target: recombinant human Fc gamma receptor CD64 (FcRγI) (human) (UniProt P12314)
[4] = target: recombinant human Fc gamma receptor CD32a 131H (human) (UniProt P12318)
[5] = target: recombinant human Fc gamma receptor CD32b/c (human) (UniProt P31994)
[6] = target: recombinant human Fc gamma receptor CD16b (FcRγIIIb) (human) (UniProt O75015)
[7] = target: recombinant human Fc gamma receptor CD32a 131R (human) (UniProt P12318)
Chain of recombinant human Fc gamma receptor CD32a 131R (human) (P12318 36-218 H167R): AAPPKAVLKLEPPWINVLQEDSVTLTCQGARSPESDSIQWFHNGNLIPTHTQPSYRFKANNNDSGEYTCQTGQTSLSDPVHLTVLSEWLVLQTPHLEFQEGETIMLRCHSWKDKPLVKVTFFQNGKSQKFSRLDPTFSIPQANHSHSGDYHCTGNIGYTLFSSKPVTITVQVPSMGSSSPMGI

Chain of recombinant human Fc gamma receptor CD16a 158V (FcRγIIIa) (human) (P08637 17-208 F176V limits assumed): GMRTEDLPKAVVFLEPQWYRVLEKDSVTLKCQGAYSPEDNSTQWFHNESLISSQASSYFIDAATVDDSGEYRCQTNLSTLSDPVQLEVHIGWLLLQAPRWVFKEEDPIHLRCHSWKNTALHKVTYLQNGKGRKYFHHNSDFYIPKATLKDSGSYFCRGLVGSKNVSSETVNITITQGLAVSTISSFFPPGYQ
Chain of recombinant human Fc gamma receptor CD32a 131H (human) (P12318 36-218): as the sequence (P12318 36-218 H167R) above, with R132H counted along it
Chain of CD20 Lipoparticles (P11836 whole entry): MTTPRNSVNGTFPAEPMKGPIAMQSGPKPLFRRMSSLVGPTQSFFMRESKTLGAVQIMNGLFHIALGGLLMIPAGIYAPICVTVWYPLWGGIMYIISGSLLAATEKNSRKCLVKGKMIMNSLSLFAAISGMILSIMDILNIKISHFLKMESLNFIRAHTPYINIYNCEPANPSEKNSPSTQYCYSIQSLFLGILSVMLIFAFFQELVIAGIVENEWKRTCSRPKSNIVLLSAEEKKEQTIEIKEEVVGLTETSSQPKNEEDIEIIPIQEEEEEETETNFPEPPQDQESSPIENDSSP
Chain of recombinant human Fc gamma receptor CD32b/c (human) (P31994 46-217): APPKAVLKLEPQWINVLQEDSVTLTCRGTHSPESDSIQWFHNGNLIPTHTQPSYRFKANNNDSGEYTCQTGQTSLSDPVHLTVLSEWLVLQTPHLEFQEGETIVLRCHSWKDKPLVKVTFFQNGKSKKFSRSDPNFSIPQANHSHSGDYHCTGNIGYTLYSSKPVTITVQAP
Chain of recombinant human Fc gamma receptor CD64 (FcRγI) (human) (P12314 16-288 limits assumed): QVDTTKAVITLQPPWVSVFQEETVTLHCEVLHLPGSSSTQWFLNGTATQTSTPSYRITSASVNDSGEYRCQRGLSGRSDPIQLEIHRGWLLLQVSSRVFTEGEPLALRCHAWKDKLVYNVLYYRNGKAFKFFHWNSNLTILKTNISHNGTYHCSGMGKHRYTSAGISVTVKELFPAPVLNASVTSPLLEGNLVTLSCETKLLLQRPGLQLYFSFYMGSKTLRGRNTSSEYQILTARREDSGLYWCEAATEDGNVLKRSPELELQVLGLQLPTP
Chain of recombinant human Fc gamma receptor CD16b (FcRγIIIb) (human) (O75015 17-200 limits assumed): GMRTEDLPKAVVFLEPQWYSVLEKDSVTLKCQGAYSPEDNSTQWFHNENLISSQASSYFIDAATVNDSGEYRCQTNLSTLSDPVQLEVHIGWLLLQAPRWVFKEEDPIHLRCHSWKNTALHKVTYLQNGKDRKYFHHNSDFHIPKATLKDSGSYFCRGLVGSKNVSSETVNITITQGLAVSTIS

Kd [1]: < 1 pM
Kd [2]: 715 nM
Kd [3]: 52.8 nM
Kd [4]: 892 nM
Kd [5]: 1520 nM
Kd [6]: 1530 nM
Kd [7]: 1250 nM
Substance: Rituxan (antibody)
